Where a chain is given by its changes, count along the chain named. Ends that are not written are not given here.

Here are results for three molecules from publication PMC9514218 (Protein Science : A Publication of the Protein Society, 2022).

Experiment [1] concerns the target T1, SURP1 (res. 48–110) of human SF3A1, K80Q mutant (human, UniProt Q15459 48-110, K80Q).
T1 sequence: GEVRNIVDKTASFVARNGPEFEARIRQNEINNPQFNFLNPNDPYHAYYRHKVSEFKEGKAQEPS
Description: BLI.

For experiment [2], the target named is T2, SURP1 (res. 48–110) of human SF3A1, N63Q mutant (human, UniProt Q15459 48-110, N63Q).
T2 sequence: T1 sequence with N17Q, Q34K
In words: BLI.

Experiment [3] concerns the target T3, SURP1 (res. 48–110) of human SF3A1, K80D mutant (human, UniProt Q15459 48-110, K80D).
T3 sequence: T1 sequence with Q34D
Description: BLI.

Experiment [4] concerns the target T4, SURP1 (res. 48–110) of human SF3A1, wild type (human, UniProt Q15459 48-110).
T4 sequence: T1 sequence with Q34K
In words: BLI.

Experiment [5] deals with T5, SURP1 (res. 48–110) of human SF3A1, R62E mutant (human, UniProt Q15459 48-110, R62E).
T5 sequence: T1 sequence with R16E, Q34K
Description: BLI.

The target of experiment [6] is T6, SURP1 (res. 48–110) of human SF3A1, N63E mutant (human, UniProt Q15459 48-110, N63E).
T6 sequence: T1 sequence with N17E, Q34K
Description: BLI.

The target of experiment [7] is T7, SURP1 (res. 48–110) of human SF3A1, R62Q mutant (human, UniProt Q15459 48-110, R62Q).
T7 sequence: T1 sequence with R16Q, Q34K
Description: BLI.

The target in experiment [8] is T4, SURP1 (res. 48–110) of human SF3A1, …. In words: NMR solution structure.

On to QRPGDPQSAQDKARMDKEYLSLMAELGEAPVPA (peptide, UniProt Q15637 295-327, looked up, also: biotin (position not given here)) [biotin-tagged SF1 S1BRp (res. 295–327)], for which the Kd in experiment [1] stood at 64.2 µM; in experiment [2], 139 µM; in experiment [3], 132 µM; in experiment [4], 15.2 µM; in experiment [5] it was 393 µM; in experiment [6] it was 251 µM. The molecule further gave a Kd in experiment [7] of 187 µM.
As to QRPGDPQSAQDKARMDKEYLSLMAELGEAPVPA (domain or fragment, human, UniProt Q15637 295-327, looked up) [S1BR (res. 295–327) of SF1 as it stands in the chimera], the binding result in experiment [8] was “binds”.
QRPGDPQSAQDKARMDKEYLSLMAELGEAPVPASVGSTSGP (peptide, UniProt Q15637 295-335, looked up, also: biotin (position not given here)) [biotin-tagged SF1 S1BRp (res. 295–335)] displayed a Kd in experiment [4] of 17.3 µM.
